# Assay results as given in patent US20180369355A1 (TEXAS A AND M UNIVERSITY SYSTEM, published 2018).
# Where no end group is shown, it is not given here.
# T1: Fg D-fragment (UniProt P02671 130-216; P02675 164-491; P02679 114-437)
# T1 construct: domain: D-fragment; also called D-domain
# T1 sequence 1: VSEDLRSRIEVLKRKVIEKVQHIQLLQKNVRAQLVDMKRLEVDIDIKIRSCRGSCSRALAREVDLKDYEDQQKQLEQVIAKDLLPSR
# T1 sequence 2: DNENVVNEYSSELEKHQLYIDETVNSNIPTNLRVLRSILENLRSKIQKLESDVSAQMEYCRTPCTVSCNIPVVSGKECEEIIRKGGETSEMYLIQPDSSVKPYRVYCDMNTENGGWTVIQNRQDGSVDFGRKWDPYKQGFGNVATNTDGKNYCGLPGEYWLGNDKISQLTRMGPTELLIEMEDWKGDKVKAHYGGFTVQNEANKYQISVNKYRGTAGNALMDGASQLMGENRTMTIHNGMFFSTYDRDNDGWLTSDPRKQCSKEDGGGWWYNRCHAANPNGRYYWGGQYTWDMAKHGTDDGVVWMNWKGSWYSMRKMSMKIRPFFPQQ
# T1 sequence 3: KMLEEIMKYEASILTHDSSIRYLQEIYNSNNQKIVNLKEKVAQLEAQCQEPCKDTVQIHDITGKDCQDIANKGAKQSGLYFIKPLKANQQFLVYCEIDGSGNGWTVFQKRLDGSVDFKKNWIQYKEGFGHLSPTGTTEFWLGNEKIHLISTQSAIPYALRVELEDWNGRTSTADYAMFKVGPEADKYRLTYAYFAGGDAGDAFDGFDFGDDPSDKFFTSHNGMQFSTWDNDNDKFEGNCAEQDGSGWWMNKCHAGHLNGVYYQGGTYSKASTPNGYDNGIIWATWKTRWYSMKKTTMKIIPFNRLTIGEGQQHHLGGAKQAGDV
# T2: human fibrinogen (human, UniProt P02671 20-629; P02675 31-491; P02679 27-437)
# T2 construct: also called Fg; intact Fg
# T2 sequence 1: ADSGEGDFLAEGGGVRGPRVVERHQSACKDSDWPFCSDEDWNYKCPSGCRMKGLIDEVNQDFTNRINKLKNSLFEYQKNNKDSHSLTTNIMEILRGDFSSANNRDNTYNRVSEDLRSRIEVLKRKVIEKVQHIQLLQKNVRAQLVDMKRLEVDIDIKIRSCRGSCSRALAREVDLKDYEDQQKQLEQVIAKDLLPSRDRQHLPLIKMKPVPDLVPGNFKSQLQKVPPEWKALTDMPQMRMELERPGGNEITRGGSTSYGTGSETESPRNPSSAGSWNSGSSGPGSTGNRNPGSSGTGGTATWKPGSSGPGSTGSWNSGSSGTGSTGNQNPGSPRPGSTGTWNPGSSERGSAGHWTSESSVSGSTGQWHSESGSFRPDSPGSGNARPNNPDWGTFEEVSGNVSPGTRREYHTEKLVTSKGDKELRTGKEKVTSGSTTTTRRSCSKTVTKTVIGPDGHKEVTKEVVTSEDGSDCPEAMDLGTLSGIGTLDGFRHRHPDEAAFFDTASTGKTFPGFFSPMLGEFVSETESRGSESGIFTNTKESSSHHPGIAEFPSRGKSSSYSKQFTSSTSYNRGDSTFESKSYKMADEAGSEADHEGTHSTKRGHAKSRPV
# T2 sequence 2: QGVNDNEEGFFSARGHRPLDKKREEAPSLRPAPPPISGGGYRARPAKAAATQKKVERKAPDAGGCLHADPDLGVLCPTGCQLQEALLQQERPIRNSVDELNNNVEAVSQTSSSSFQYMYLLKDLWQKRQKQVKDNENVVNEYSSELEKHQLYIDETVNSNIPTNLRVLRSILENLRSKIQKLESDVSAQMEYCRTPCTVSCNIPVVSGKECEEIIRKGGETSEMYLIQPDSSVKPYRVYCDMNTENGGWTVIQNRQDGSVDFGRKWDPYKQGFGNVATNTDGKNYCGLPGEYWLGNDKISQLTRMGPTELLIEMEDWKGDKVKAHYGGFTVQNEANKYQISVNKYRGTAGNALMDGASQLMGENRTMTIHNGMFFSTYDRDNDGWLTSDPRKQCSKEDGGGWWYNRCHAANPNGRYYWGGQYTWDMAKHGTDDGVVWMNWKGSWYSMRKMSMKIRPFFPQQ
# T2 sequence 3: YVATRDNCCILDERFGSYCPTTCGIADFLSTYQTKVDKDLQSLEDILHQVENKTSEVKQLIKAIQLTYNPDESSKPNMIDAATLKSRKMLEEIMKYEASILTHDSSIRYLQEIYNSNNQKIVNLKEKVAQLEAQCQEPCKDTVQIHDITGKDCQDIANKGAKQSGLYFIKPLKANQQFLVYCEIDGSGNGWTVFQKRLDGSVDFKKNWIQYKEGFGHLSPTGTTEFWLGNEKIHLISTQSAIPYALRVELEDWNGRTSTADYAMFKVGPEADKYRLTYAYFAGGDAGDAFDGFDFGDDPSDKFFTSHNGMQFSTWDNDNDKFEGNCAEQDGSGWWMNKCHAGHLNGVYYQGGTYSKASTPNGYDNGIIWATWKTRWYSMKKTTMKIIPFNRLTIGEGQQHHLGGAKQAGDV
# T3: ClfA370-559 (S. aureus, UniProt Q53653 370-559)
# T3 construct: also called recombinant form of N3
# T3 sequence: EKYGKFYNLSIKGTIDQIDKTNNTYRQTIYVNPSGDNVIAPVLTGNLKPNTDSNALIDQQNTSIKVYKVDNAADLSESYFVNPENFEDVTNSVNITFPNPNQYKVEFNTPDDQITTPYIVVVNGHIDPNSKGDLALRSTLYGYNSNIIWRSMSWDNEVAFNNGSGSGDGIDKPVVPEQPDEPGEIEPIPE
# B1: ClfA221-559 (other)
# chain: VAADAPAAGTDITNQLTNVTVGIDSGTTVYPHQAGYVKLNYGFSVPNSAVKGDTFKITVPKELNLNGVTSTAKVPPIMAGDQVLANGVIDSDGNVIYTFTDYVNTKDDVKATLTMPAYIDPENVKKTGNVTLATGIGSTTANKTVLVDYEKYGKFYNLSIKGTIDQIDKTNNTYRQTIYVNPSGDNVIAPVLTGNLKPNTDSNALIDQQNTSIKVYKVDNAADLSESYFVNPENFEDVTNSVNITFPNPNQYKVEFNTPDDQITTPYIVVVNGHIDPNSKGDLALRSTLYGYNSNIIWRSMSWDNEVAFNNGSGSGDGIDKPVVPEQPDEPGEIEPIPE
# notes: Recombinant, expressed in E. coli and purified by nickel chelate chromatography; the tag is not described; also called ClfA N2N3; ClfAN2N3
# B2: GST-tagged Fg γ-peptide (other)
# chain: {GST}-GEGQQHHLGGAKQAGDV
# notes: domain: γ-peptide (carboxy terminal of the γ-chain); 'expressed and purified as described earlier'; also called GST-γ-peptide; GST tagged γ-peptide; not shown: GST tag
# B3: ClfACC (other)
# chain: GTDITNQLTNVTVGIDSGTTVYPHQAGYVKLNYGFSVPNSAVKGDTFKITVPKELNLNGVTSTAKVPPIMAGDQVLANGVIDSDGNVIYTFTDYVNTKCDVKATLTMPAYIDPENVKKTGNVTLATGIGSTTANKTVLVDYEKYGKFYNLSIKGTIDQIDKTNNTYRQTIYVNPSGDNVIAPVLTGNLKPNTDSNALIDQQNTSIKVYKVDNAADLSESYFVNPENFEDVTNSVNITFPNPNQYKVEFNTPDDQITTPYIVVVNGHIDPNSKGDLALRSTLYGYNSNIIWRSMSWDNEVAFNNGSGSGDGIDCPVVP
# modifications: engineered disulfide bond between C327 and C541
# notes: also called disulfide bond-closed ClfACC; closed form of ClfA N2N3
# Assays:
# [1] = target: ClfA221-559 (S. aureus strain Newman) (UniProt Q53653); assay: SPR competition: Tefibazumab (0.1 to 2 µM) mixed with 1 µM ClfA221-559, binding of ClfA221-559 to immobilized Fg D-fragment (Fg-D) is blocked
# [2] = target: ClfA221-559 (S. aureus strain Newman) (UniProt Q53653); assay: SPR competition; Tefibazumab 0.1-2 µM with 1 µM ClfA221-559 over immobilized Fg D-fragment (competitor: D-fragment)
# [3] = target: ClfA221-559 (S. aureus strain Newman) (UniProt Q53653); assay: SPR competition; Tefibazumab 0.1-2 µM with 1 µM ClfA221-559 over immobilized human Fg (competitor: Fg)
# [4] = target: ClfA221-559 (S. aureus strain Newman) (UniProt Q53653); assay: SPR competition: Tefibazumab mixed with 1 µM ClfA221-559, blocked ligand immobilized fibrinogen (Fg)
# [5] = target: ClfA221-559 (S. aureus strain Newman) (UniProt Q53653); assay: SPR competition; 2 µM Tefibazumab with 1 µM ClfA221-559 over immobilized D-fragment (competitor: D-fragment)
# [6] = target: ClfA221-559 (S. aureus strain Newman) (UniProt Q53653); assay: SPR competition; 2 µM Tefibazumab with 1 µM ClfA221-559 over captured GST-tagged Fg γ-peptide (competitor: GST-γ-peptide)
# [7] = target: ClfA221-559 (S. aureus strain Newman) (UniProt Q53653); assay: SPR competition: Tefibazumab (0.1 to 2 µM) mixed with 1 µM ClfA221-559, binding of ClfA221-559 to immobilized fibrinogen (Fg) is blocked
# [8] = target: ClfA221-559 (S. aureus strain Newman) (UniProt Q53653); assay: SPR competition: Tefibazumab mixed with 1 µM ClfA221-559, blocked ligand immobilized Fg D-fragment (Fg-D)
# [9] = target: ClfA221-559 (S. aureus strain Newman) (UniProt Q53653); assay: SPR competition; 2 µM Tefibazumab with 1 µM ClfA221-559 over immobilized Fg (competitor: Fg)
# Fg D-fragment [10] = target: T1, Fg D-fragment; assay: SPR; ClfA221-559 over immobilized Fg D-fragment; immobilized Fg D-fragment
# human fibrinogen [11] = target: T2, human fibrinogen; assay: SPR; immobilized Fg against GST-γ-peptide
# Fg D-fragment [12] = target: T1, Fg D-fragment; assay: SPR; immobilized Fg D-fragment against GST-γ-peptide
# human fibrinogen [13] = target: T2, human fibrinogen; assay: SPR; ClfA221-559 over immobilized intact Fg; immobilized intact Fg
# ClfA221-559 = target: B1; assay: SPR (Biacore), drawn table Ligand/analyte: GST-γ-peptide on the surface, ClfA221-559 as analyte
# ClfA370-559 = target: T3, ClfA370-559; assay: SPR (Biacore), drawn table Ligand/analyte: GST-γ-peptide on the surface, ClfA N3 domain (ClfA370-559) as analyte
# human fibrinogen [14] = target: T2, human fibrinogen; assay: ITC, ClfACC titrated into fibrinogen in the cell; OneSites fit box
# human fibrinogen [15] = target: T2, human fibrinogen; assay: ITC, ClfACC titrated into fibrinogen in the cell; OneSites fit box, unit not given
# human fibrinogen [16] = target: T2, human fibrinogen; assay: ITC; full-length Fg in the cell, ClfACC titrated in, 30 °C; full-length Fg in the cell, ClfACC titrated in
# human fibrinogen [17] = target: T2, human fibrinogen; assay: ITC; full-length Fg against the synthetic C-terminal γ-chain peptide
molecule,measurement,setting,value
Tefibazumab (antibody),IC50,[1],0.0296 µM
same,IC50,[2],0.03 µM
same,IC50,[3],0.03 µM
same,IC50 (read off the curve),[4],0.3 µM
same,percent inhibition,[5],70%
same,percent inhibition,[6],25%
same,IC50,[7],0.0302 µM
same,IC50 (read off the curve),[8],0.3 µM
same,percent inhibition,[9],60%
B1,Kd,Fg D-fragment [10],0.68 µM
same,fold difference in KD against the γ-peptide,human fibrinogen [11],4 to 7 fold
same,fold difference in KD against the γ-peptide,Fg D-fragment [12],4 to 7 fold
same,Kd,human fibrinogen [13],0.98 µM
B2,Kd,ClfA221-559,4.3 µM
same,Kd,ClfA370-559,54 µM
B3,N,human fibrinogen [14],1.57
same,ΔH,human fibrinogen [15],-13300
same,Kd,human fibrinogen [16],0.3 µM
same,fold higher affinity against the γ-chain peptide,human fibrinogen [17],30 fold
